The record followed here is PMC10106849.

In this data set the target is T1, RsCDF3 (Raphanus sativus, UniProt A0A6J0K2F2 1-435).
T1 sequence: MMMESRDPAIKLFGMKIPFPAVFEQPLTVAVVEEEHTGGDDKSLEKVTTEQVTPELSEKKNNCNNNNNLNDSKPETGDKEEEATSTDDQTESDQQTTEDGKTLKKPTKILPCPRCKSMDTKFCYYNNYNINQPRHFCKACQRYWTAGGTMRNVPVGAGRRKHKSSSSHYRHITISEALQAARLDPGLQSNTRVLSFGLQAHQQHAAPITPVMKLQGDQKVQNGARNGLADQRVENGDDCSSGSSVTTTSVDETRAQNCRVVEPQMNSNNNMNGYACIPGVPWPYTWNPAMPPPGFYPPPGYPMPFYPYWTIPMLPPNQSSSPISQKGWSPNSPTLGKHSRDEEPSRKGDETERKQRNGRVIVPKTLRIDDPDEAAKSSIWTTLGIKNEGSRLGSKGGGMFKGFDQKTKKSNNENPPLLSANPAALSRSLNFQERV
The experiment in a line: competition.

B1: mP1 mutated probe (dsDNA)
DNA 1: AATACACATTTATAATGTCTAGTTAAACTTAC
DNA 2: GTAAGTTTAACTAGACATTATAAATGTGTATT
Regarding B1, the binding result is given as “no binding”.
